According to patent US20100021473A1 (DOMANTIS, published 2010):
Residue numbers refer to the chain shown, from its start.

T1: NCA on H647 cells (UniProt P40199 35-320, limits assumed)
T1 construct: whole, on cells; Its identity is an inference
T1 sequence (looked up): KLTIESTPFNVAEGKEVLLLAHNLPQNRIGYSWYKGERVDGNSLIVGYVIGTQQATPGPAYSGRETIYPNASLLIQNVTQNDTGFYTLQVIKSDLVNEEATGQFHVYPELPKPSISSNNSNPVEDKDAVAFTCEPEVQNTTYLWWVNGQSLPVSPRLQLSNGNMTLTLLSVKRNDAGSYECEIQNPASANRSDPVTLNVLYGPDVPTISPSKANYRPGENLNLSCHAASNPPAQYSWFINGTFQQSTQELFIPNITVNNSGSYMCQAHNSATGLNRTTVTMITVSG

B1: DOM11-30-2 (other)
chain: DIQMTQSPSSLSASVGDRVTITCRTSQKIENDLAWYQQKPGKAPKLLIYYTSILQSGVPSRFSGSGSGTDFTLTISSLQPEDFATYYCQQRRYVPATFGQGTKVEIKR
B2: DOM11-30-1 (other)
chain: B1 chain with T25A, Q27L, V94A
B3: DOM11-30-3 (other)
chain: B1 chain with T25A, K42N, Q55H
B4: DOM11-3-1 (other)
chain: DIQMTQSPSSLSASVGDRVTITCRASHNIDSRLSWYQQKPGKAPKLLIYRASVLQSGVPSRFRGSGSGTDFTLTISSLQPEDFATYYCQQWDMFPLSFGQGTKVEIKR
B5: DOM11-3-2 (other)
chain: B4 chain with H27Q, A51T, R63S, S97M
B6: DOM 11-3-1/DOM 12-45-2 (bispecific antibody, V domains shown)
V domain 1: B4 chain
V domain 2: DIQMTQSPSSLSASVGDRVTITCRASQDIGGRLRWYQQKPGKAPKLLIYHGSRLDSGVPSRFSGSRSGADFTLTISSLQPEDFATYYCQQQWYRPYTFGQGTKVEIKR
B7: DOM 11-3-20/DOM 12-45-2 (bispecific antibody, V domains shown)
V domain 1: B4 chain with M4T, H27Q, A51S, R63S, S97M
V domain 2: B6 V domain 2
B8: DOM 11-3-15/DOM 12-45-2 (bispecific antibody, V domains shown)
V domain 1: B4 chain with H27Q, R63S, S65T
V domain 2: B6 V domain 2
B9: DOM 11-3-23/DOM 12-45-2 (bispecific antibody, V domains shown)
V domain 1: B4 chain with H27Q, R63S, S97A, K103R
V domain 2: B6 V domain 2
B10: DOM13-57 (other)
chain: DIQMTQSPSSLSASVGDRVTITCRASQGIMYHLRWYQQKPGKAPRLLIYHGSTLQSGVPARFSGSGSGTDFTLTISSLQPEDFATYYCQQTWNAPLTFGQGTKVEIKR
notes: Anti-CEA dAb monomer
B11: DOM13-93 (other)
chain: DIQMTQSPSSLSASVGDRVTITCRASQDIGNMLAWYQQKPGKAPKPLIYYASYLQSGVPSRFSGSGSGTDFTLTISSLQPEDFATYYCQQMRDYPVTFGQGTKVEIKR
notes: Anti-CEA dAb monomer
B12: DOM13-58 (other)
chain: B11 chain with D28G, M32S, A34R, P46L, A51S, Y53H, M91I, D93T, Y94K, V96F
notes: Anti-CEA dAb monomer
B13: DOM13-95 (other)
chain: B11 chain with T5S, M91L, R92G, D93A, Y94K, V96H
notes: Anti-CEA dAb monomer
B14: DOM13-65 (other)
chain: DIQMTQSPSSLSASVGDRVTITCRASQSIGMLLSWYQQKPGKAPKLLIYAVSRLQSGVPSRFSGSGSGTDFTLTISSLQPEDYATYYCQQMQRPPITFGQGTKVEIKR
notes: Anti-CEA dAb monomer
B15: DOM13-64 (other)
chain: B14 chain with M31T, S34N, V51S, Y83F, Q92N, P94V
notes: Anti-CEA dAb monomer
B16: DOM11-37 (other)
chain: DIQMTQSPSSLSAFVGDRVTITCRASQDIEGQLRWYQQKPGKAPKLLIYFGSLLQSGVPSRFSGSGSGTVYTLTISSLQPEDFATYYCQQSHLFPATFGQGTKVEIKR
notes: Anti-CD38 dAb monomer
B17: DOM11-38 (other)
chain: DIQVTQSPSSLSASVGDRVTITCRASQEISSCLNWYQQKPGKAPKLLIYCTSVLQSGVPSRFSGSGSGTDFTLTISSLQPEDFATYYCQQRFGNPLTFGQGTKVEIKR
notes: Anti-CD38 dAb monomer
B18: DOM11-24 (other)
chain: DIQMTQSPSSLSASVGDRVTITCRASQEIHDYLSWYQQKPGKAPKLLIYLSSRLQSGVPSRFSGSGSGTDFTLTISSLQPEDFATYYCQQYHKGPYTFGQGTKVEIKR
notes: Anti-CD38 dAb monomer
B19: DOM11-39 (other)
chain: DIQMTQSPSSLSASVGDRVTITCRASQPIDGNLRWYQQKPGKAPRLLIYFTSILQSGVPSRFSGSGSGTDFTLTISSLQPEDFATYYCQQHRHWPATFGQGTKVEIKR
B20: DOM11-32 (other)
chain: DIQMTQSPSSLSASVGDRVTITCRASQWIGDSLVWYQQKPGKAPKLLIYFGSILQSGVPSRFSGSGSGTDFTLTISSLQPEDFATYYCQQHKTSPSTFGQGTKVEIKR
notes: Anti-CD38 dAb monomer
B21: DOM14-68 (other)
chain: B18 chain with H30S, D31G, Y32E, S34T, L50F, R53I, Y91R, H92K, K93L, G94R
notes: Anti-CD56 dAb monomer
B22: DOM14-70 (other)
chain: DIQMTQSPSSLSASVGDRVTITCRASQEIGQWLNWYQQKPGKAPKLLIYWGSELQSGVPSRFSGSGSGTDFTLTISSLQPEDFATYYCQQVSRNPFTFGQGTKVEIKR
notes: Anti-CD56 dAb monomer
B23: DOM14-57 (other)
chain: B22 chain with E28Q, G30D, Q31D, W32Y, G51T, E53L, V91S, S92A, R93H, N94R
notes: Anti-CD56 dAb monomer
B24: DOM14-63 (other)
chain: DIQMTQSPSSLSASVGDRVTITCRASQNISRGLRWYQQKPGKAPKLLIYHASKLQSGVPSRFSGSGSGTDFTLTISSLQPEDFATYYCQQYKVFPGTFGQGTKVEIKR
notes: Anti-CD56 dAb monomer
B25: DOM14-23 (other)
chain: DIQMTQSPSSLSASVGDRVTITCRASQDIFPFLNWYQQKPGKAPELLIYRASILHSGVPSRFSGSGSGTDFTLTISSLQPEDFATYYCQQIARSPRTFGQGTKVEIKR
notes: Anti-CD56 dAb
B26: DOM14-62 (other)
chain: DIQMTQSPSSLSASVGDRVTITCRASQNISYHLVWYQQKPGKAPKLLIYSSSNLQSGVPSRFSGSGSGTDFTLTISSLQPEDLATYYCQQLASWPHTLGQGTKVEIKR
notes: Anti-CD56 dAb monomer

Each binder was assayed against T2, CD38 immobilised on Biacore CM5 chip (UniProt P28907 43-300, limits assumed) (assay: Biacore, CD38 immobilised).
T2 construct: also called DOM11
Description: (§1) Anti-CD38, anti-CEA and anti-CD56 dAbs that were identified as FACS positive clones were in addition analysed by Biacore using the following procedure. The CM5 chip surface was activated by flushing 1:1 EDC/NHS (0.4M1-ethyl-3-(3-dimenthylaminopropyl)-carbodiimide in water; 0.1 M N-hydroxysuccinimide in water) at a flow rate of 5 uL/min for 10 minute contact time. CD38 was immobilised at 500 nM in Acetate buffer pH4 at 5 uL/min this was repeated until the RUs reached between 500 and 1000 (low density). CEA and CD56 were coupled in acetate buffer pH 4.5. Any excess reactive groups were deactivated by running 1M ethanolamine-HCl over the CM5 chip (again 5 uL/min for 7 mins). The affinities of the anti-CD38, anti-CEA and anti-CD56 dAbs were measured on the biacore as described above.
Affinity maturation libraries were created for the anti-CD38 dAbs DOM11-3 and DOM11-30 by error prone PCR. […] Initial screening was carried out by BIAcore (as described previously) and subsequently by FACS.
Binder B1 has a Kd of 62 to 76 nM.
B2 was tested, and the Kd was 19 nM.
Binder B3 has a Kd of 86 to 93 nM.
B4 showed a Kd of 62 nM.
With B5 the Kd was 130 to 160 nM.

These binders were tested against T3, CD38 and CD138 co-expressed on cells (CD38+/CD138+ double positive cells) (UniProt P28907 1-300; P18827 23-310) (assay: FACS cell binding titration on OPM2 cells (CD38+/CD138+), arithmetic mean fluorescence. The table prints no unit; the unit is taken from the x axis 'log conc in nm' (nanomolar).).
T3 construct: whole, on cells; Two separate membrane proteins on the same cell, not a complex; also called RPMI8226; OPM2
Description: (§2) The determination of cell binding by FACS was carried out as follows: cells were centrifuged at 250 g for 5 minutes and the growth medium was removed. The cells were resuspended in FACS incubation buffer at 4° C. at a density of 2×10⁶ cells/ml. The cells were blocked by incubating for 15 minutes at 4° C. in FACS incubation buffer. Fifty microliters of 2× stock of primary antibody (anti-CD38 FITC, anti-CD138 FITC or mIgG1 FITC conjugated isotype control (all BD Biosciences) was added; or dAb was added to cells in FACS incubation buffer and incubated for 30-60 minutes at 4° C. The cells were then washed once in FACS incubation buffer. One hundred microliters of secondary antibody (rabbit anti-Vk) was added to cells in FACS incubation buffer and incubated 30-60 minutes at 4° C. The cells were washed once in FACS incubation buffer. Then 100 ul of 1× tertiary antibody was added to the cells in FACS incubation buffer and incubated for 30-60 mins at 4° C. (for dAbs the tertiary antibody is anti-rabbit FITC (Sigma)). The cells were washed twice in FACS incubation buffer. The cell pellet was resuspend in 200 ul FACS incubation buffer+viable cell marker (BD Viaprobe). The cells were then analyzed by flow cytometry.
Anti-CD38 and anti-CD138 affinity matured dAbs were paired to create dual specific ligands by cloning an anti-CD38 dAb and an anti-CD138 dAb into a dual expression vector. To determine if the increased affinity of the monomers was reflected in increased binding affinity of the dual specific ligand, a range of the affinity matured anti-CD38 dAbs were paired with the anti-CD138 dAb DOM12-45, a range of affinity matured anti-CD138 dAbs were paired with anti-CD38 dAbs, and a range of affinity matured anti-CD38 dAbs and affinity matured anti-CD138 dAbs were paired. All dual specific ligands were expressed in E. coli and purified using protein L agarose followed by Resource S cation exchange chromatography when required. The binding affinity of the dual specific ligands was assessed by FACS as described previously. In this study, a range of concentrations was used to allow determination of EC50.
B6 was tested, and the EC50 was 13.8 nM.
Binder B7 has an EC50 of 11.9 nM.
Work on B8 yielded an EC50 of 16.7 nM.
Binder B9 has an EC50 of 11 nM.

The binders below were run against T1, NCA on H647 cells (assay: FACS on H647 cells (CEA-/NCA+)).
Description: (§3) All dAbs were analysed by FACS on antigen positive and negative cell lines using the following method.
as §2
B10: no binding.
B11: no binding.
B12: no binding.
B13: no binding.
B14: no binding.
B15: no binding.

What follows are binders tested against T4, CD38 on cells (UniProt P28907 1-300) (assay: FACS on RPMI cells (CD38+/138+)).
T4 construct: whole, on cells; Endogenous CD38 on cell lines used in FACS or microscopy; also called DOM11; T10
Description: as §3, §2
B16: binds.
B17: binds.
B18: binds.
B19: binds.
B20: binds.

The binders below were run against T5, CD56 immobilised on Biacore CM5 chip (UniProt P13591 20-718, limits assumed) (assay: Biacore, CD56 immobilised).
T5 construct: also called DOM14
Description: as §1
B21: no binding.
B22 showed a Kd of 500 to 800 nM.
B23: no binding.
Work on B24 yielded a Kd of 100 nM.
B25 was tested, and the Kd was 100 to 200 nM.
B26: no binding.
